In patent US20150329626A1 (Eli Lilly, published 2015) one finds Kd, koff and kon data, which are given here for one molecule.

Common to all, as to assay: Biacore SPR, 37 C, n = 3, compound captured on Protein A
For orientation: Surface plasmon resonance follows binding to a sensor surface in real time, without labels.

One assay has as its target T1, human Ang2 (human, UniProt O15123 19-496).
T1 construct: also called hAng2; human angiopoietin-2
T1 sequence: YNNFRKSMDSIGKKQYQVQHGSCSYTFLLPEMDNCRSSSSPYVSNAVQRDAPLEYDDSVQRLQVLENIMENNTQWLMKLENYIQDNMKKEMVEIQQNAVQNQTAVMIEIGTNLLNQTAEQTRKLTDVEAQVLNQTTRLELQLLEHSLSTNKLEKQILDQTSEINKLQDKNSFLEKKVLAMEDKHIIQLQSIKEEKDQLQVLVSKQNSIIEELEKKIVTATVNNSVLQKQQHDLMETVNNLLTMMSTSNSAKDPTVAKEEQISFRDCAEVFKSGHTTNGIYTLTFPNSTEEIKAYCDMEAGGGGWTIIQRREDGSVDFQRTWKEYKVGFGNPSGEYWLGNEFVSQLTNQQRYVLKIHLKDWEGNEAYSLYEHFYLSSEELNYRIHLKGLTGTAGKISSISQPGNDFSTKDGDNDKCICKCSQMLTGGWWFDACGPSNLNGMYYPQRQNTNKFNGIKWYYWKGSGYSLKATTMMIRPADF

The target in another assay is T2, dog Ang2 (dog, UniProt A0A8J8 19-495, limits assumed).
T2 sequence (looked up): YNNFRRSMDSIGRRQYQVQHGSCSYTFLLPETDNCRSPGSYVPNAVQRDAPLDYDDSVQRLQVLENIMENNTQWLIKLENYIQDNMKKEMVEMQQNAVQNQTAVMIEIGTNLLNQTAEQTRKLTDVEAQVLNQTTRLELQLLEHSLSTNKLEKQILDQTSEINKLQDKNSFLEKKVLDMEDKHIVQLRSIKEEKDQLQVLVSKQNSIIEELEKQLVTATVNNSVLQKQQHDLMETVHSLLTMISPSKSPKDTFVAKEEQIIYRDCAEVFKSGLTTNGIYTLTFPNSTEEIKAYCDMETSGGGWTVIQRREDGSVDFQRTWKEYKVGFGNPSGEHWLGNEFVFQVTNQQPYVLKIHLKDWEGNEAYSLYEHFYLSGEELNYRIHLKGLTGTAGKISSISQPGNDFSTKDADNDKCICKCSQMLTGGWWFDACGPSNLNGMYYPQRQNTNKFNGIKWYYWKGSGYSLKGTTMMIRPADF

The next assay deals with T3, cyno Ang2 (cynomolgus monkey, UniProt A0A2K5VNX6 19-496).
T3 construct: also called cynomolgus monkey Ang2
T3 sequence: T1 sequence with E258G, I279V, F284L, I291V, G410A, A468G, D477G

The term Kd denotes the concentration at which binding is half-saturated. Lower therefore signals a tighter complex. For orientation: koff means the first-order rate constant of dissociation. Lower therefore signals slow dissociation. Usually kon stands for the rate constant with which the complex forms. Higher therefore signals fast association.

Numbering of substitutions follows the chain as printed.

B1: Compound F (bispecific antibody, human IgG4 S228P, kappa, F234A L235A)
heavy: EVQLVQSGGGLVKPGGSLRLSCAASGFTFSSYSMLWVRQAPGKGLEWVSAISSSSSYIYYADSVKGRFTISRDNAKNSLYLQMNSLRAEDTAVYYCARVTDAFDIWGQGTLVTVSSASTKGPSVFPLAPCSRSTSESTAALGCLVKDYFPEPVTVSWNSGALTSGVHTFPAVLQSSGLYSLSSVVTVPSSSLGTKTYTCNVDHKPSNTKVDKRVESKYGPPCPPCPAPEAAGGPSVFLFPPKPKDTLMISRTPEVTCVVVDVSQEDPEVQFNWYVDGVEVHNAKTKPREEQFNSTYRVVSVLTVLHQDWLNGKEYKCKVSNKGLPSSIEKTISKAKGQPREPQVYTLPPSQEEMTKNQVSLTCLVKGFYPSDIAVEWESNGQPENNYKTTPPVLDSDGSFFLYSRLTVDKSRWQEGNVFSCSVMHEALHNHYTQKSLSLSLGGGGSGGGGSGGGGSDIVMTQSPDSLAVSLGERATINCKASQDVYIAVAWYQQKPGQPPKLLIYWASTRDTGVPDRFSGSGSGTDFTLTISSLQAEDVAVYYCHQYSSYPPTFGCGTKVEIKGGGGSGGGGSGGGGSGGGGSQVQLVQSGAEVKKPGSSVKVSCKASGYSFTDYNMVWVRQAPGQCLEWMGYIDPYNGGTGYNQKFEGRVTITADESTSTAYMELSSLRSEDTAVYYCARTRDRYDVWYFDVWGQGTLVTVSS
light: DIQMTQSPSSVSASVGDRVTITCRASRGIDNWLTWYQQKPGKAPKLLIYEASSLQSGVPSRFSGSGSGTDFTLTISSLQPEDFATYYCQQAKAFPPTFGGGTKVDIKRTVAAPSVFIFPPSDEQLKSGTASVVCLLNNFYPREAKVQWKVDNALQSGNSQESVTEQDSKDSTYSLSSTLTLSKADYEKHKVYACEVTHQGLSSPVTKSFNRGEC
notes: also called Cmpd F
In the case of B1, in the assay with human Ang2, the affinity, expressed as Kd, was 0.1 nM; the off-rate constant (koff) was found to be 7e-05 s⁻¹; the kon was found to be 820000 M⁻¹ s⁻¹. In the assay with dog Ang2, this molecule registered a Kd of 0.24 nM, a koff of 9e-05 s⁻¹ and an on-rate (kon) of 360000 M⁻¹ s⁻¹. Further, in the assay with cyno Ang2, the Kd amounted to 0.3 nM, the koff was found to be 0.00028 s⁻¹ and the association rate constant (kon) was 960000 M⁻¹ s⁻¹.
